Values quoted from earlier work as cited in patent US20040063697A1, “Compositions of cyclooxygenase-2 selective inhibitors and thrombolytic agents for the treatment or prevention of a vaso-occlusive event” (priority 2002, published 2004).

Key:
plasminogen = plasminogen (Homo sapiens, UniProt P00747)
[1] = not given; remark: listed apart in the source

plasminogen, sequence (P00747 20-810 limits assumed): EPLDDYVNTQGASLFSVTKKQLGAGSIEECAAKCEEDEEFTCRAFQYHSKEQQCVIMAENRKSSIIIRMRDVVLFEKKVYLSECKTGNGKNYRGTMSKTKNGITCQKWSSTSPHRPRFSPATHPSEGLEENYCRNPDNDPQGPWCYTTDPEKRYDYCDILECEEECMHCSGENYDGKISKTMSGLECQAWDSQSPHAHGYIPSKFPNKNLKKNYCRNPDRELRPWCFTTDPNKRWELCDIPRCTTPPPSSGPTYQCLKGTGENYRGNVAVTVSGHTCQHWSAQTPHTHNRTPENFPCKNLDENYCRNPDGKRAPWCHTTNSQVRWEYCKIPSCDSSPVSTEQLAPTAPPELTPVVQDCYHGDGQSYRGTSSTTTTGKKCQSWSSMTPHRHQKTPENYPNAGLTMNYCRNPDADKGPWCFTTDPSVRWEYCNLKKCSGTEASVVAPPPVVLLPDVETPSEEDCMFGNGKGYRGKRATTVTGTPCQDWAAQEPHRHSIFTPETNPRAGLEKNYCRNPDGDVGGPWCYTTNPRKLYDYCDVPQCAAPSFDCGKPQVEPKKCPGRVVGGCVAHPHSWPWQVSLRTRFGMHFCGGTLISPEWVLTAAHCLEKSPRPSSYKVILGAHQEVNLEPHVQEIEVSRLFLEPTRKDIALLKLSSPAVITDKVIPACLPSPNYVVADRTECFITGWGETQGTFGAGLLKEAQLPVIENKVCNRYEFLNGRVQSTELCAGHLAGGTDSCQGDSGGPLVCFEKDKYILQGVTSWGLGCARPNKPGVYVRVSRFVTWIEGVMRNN

Method of Plasminogen Activation (plasminogen): Direct
B1: Tenecteplase: human derivative of t-PA (protein, UniProt P00750 36-562, looked up, variant T103N N117Q K296A H297A R298A R299A)
Tissue-type plasminogen …: SYQVICRDEKTQMIYQQHQSWLRPVLRSNRVEYCWCNSGRAQCHSVPVKSCSEPRCFNGGTCQQALYFSDFVCQCPEGFAGKCCEIDTRATCYEDQGISYRGNWSTAESGAECTNWQSSALAQKPYSGRRPDAIRLGLGNHNYCRNPDRDSKPWCYVFKAGKYSSEFCSTPACSEGNSDCYFGNGSAYRGTHSLTESGASCLPWNSMILIGKVYTAQNPSAQALGLGKHNYCRNPDGDAKPWCHVLKNRRLTWEYCDVPSCSTCGLRQYSQPQFRIKGGLFADIASHPWQAAIFAAAAASPGERFLCGGILISSCWILSAAHCFQERFPPHHLTVILGRTYRVVPGEEEQKFEVEKYIVHKEFDDDTYDNDIALLQLKSDSSRCAQESSVVRTVCLPPADLQLPDWTECELSGYGKHEALSPFYSERLKEAHVRLYPSSRCTSQHLLNRTVTDNMLCAGDTRSGGPQANLHDACQGDSGGPLVCLNDGRMTLVGIISWGLGCGQKDVPGVYTKVTNYLDWIRDNMRP
Antigenicity (in vivo): No
immune response (when administered to a human): no immune response is elicited
Elimination ([1]; in vivo): Hepatic
Half-Life ([1]; in vivo): 20 to 25 min
plasma clearance time and half-life ([1]; in words): lower plasma clearance time and a longer half-life
